Assay [1] concerns the target T1, recombinant human IL4Rα-his (human, UniProt P24394 26-231, limits assumed, biotin-labeled in the capture ELISA).
T1 construct: In-house made; not shown: His tag at the C-terminus
Briefly: capture ELISA: antibody captured on anti-human IgG Fc F(ab')2, biotin human IL4Rα-his, SA-HRP. The procedure:
(§1) Briefly, 96-well plates were coated with 2 μg/mL AffiniPure F(ab′)₂ Fragment Goat Anti-Human IgG, Fey fragment specific (Jackson Immuno Research, Cat #109-006-008) in PBS, 100 μL/well, overnight at 4° C. Plates were washed once with wash buffer (PBS+0.05% w/v Tween-20, PBST) and then blocked with 200 μL/well blocking buffer (5% w/v non-fatty milk in PBST) for 2 hours at 37° C. […] After a final wash, plates were incubated with 100 μL/well ELISA substrate TMB (Innoreagents, Cat #TMB-S-002). The reaction was stopped in 10 minutes at 25° C. with 50 μL/well 1M H₂SO₄, and the absorbance was read on a microplate reader using dual wavelength mode with 450 nm for TMB and 630 nm as the reference wavelength. Data was analyzed using Graphpad Prism and EC₅₀ values were reported.

For assay [2], the target named is T2, human IL4Rα expressed on 293F-IL4Rα cell surface (human, UniProt P24394 26-825).
T2 construct: whole, on cells; also called human IL4Rα-expressing cells; cell surface IL4R
Briefly: cell-based blocking FACS on 293F-IL4Rα cells; blocked ligand biotin human IL4. The protocol:
(§2) Then, 1×10⁵ cells per well were incubated in 96 well-plates in 100 μL of serially diluted bispecific antibodies, the positive controls or negative control (starting at 100 nM with a 5-fold serial dilution) in FACS buffer for 40 minutes on ice. […] The plates were washed twice with FACS buffer, and then added and incubated for 40 minutes at 4° C. in dark with 100 μL/well R-Phycoerythrin Streptavidin (1:500 dilution in FACS buffer, Jackson Immunoresearch, Cat #016-110-084). Cells were washed twice and resuspended in FACS buffer. Fluorescence was measured using a Becton Dickinson FACS Canto II-HTS equipment. Data was analyzed using Graphpad Prism and IC₅₀ values were reported.

Assay [3] has as its target T1, recombinant human IL4Rα-his. Briefly: SPR Biacore T200; antibody captured on anti-human IgG CM5 chip, IL4Rα-his as analyte; 1:1 Langmuir fit. The procedure: The goat anti-human IgG (GE healthcare, Cat #BR100839, Human Antibody Capture Kit) was covalently linked to a CM5 chip (carboxy methyl dextran coated chip) via primary amines, using a standard amine coupling kit provided by Biacore (GE healthcare, Pittsburgh, PA, USA). Un-reacted moieties on the biosensor surface were blocked with ethanolamine. Then, purified bispecific antibodies of the disclosure at the concentration of 66.67 nM and the controls at 10 μg/mL, were flowed onto the chip at a flow rate of 10 μL/min. Then, serially diluted recombinant human IL4Rα-his (in house made, IL4Rα of SEQ ID NO: 33 with His tag at C-terminus) in HBS EP buffer (provided by Biacore) was flowed onto the chip at a flow rate of 30 μL/min. The association and dissociation curves were fit to a 1:1 Langmuir binding model using BIAcore evaluation software.

Assay [4] shares this target. Briefly: capture ELISA: antibody captured on anti-human IgG Fc F(ab')2, biotin human IL4Rα-his, SA-HRP. The procedure: as §1
This is another data set of the same source.

In assay [5] the target is T2, human IL4Rα expressed on 293F-IL4Rα …. Briefly: flow cytometry on 293F-IL4Rα cells, PE anti-human IgG Fc. The procedure:
(§3) Cells were washed twice with FACS buffer, and added with 100 μL/well R-Phycoerythrin AffiniPure Goat Anti-Human IgG, Fey fragment specific (1:1000 dilution in FACS buffer, Jackson Immunoresearch, Cat #109-115-098). Following an incubation of 40 minutes at 4° C. in dark, cells were washed three times and resuspended in FACS buffer. Fluorescence was measured using a Becton Dickinson FACS Canto II-HTS equipment. Data was analyzed using Graphpad Prism and EC₅₀ values were reported.

Assay [6] has the same target. Briefly: cell-based blocking FACS on 293F-IL4Rα cells; blocked ligand biotin human IL4. The protocol:
as §2
This is another data set of the same source.

The target is the same in assay [7]. Briefly: flow cytometry on 293F-IL4Rα cells, PE anti-human IgG Fc. The procedure: as §3
The source holds these as a separate data set.

The target of assay [8] is T3, biotin-labeled human TSLP-Fc (human, biotin-labeled).
T3 construct: also called TSLP-Fc protein; TSLP-Fc-biotin
Briefly: cell-based blocking FACS: antibody pre-mixed with biotin human TSLP-Fc; blocked binding to cell-surface TSLPR/IL7Ra on HEK293T-TSLPR/IL7R/STAT5-Luc 5C5 cells. The protocol:
The cells were prepared following the instruction of lipofectamine 3000 transfection reagent (Thermo Fisher), by transfecting HEK293T cells (ATCC® CRL-11268) with pCMV-T-P plasmids inserted with TSLPR coding sequence between EcoRI and Xba1 sites and pCMV3-SP plasmids inserted with IL7Ra coding sequence between HindIII and Xba1 sites as well as pGL4.52 [luc2P/STAT5RE/Hygro](Promega).
The cells were harvested from cell culture flasks, washed twice and re-suspended in phosphate buffered saline (PBS) containing 2% v/v Fetal Bovine Serum (FACS buffer). […] Cells were washed twice with FACS buffer, and then added and incubated with 100 μL/well R-Phycoerythrin Streptavidin (1:500 dilution in FACS buffer, Jackson Immunoresearch, Cat #016-110-084) for 40 minutes at 4° C. in dark. Cells were washed twice and re-suspended in FACS buffer. Fluorescence was measured using a Becton Dickinson FACS Canto II-HTS equipment. Data was analyzed using Graphpad Prism and IC₅₀ values were reported.

Read-outs that look alike come from different tables or passages of the source.

B1: huC2C1A1A1-V15(IgG1) (antibody)
heavy: EVQLVESGGGLVQPGGSLRLSCAASGFTFSTYGMSWVRQAPGKGLVWVATINSNGGSTSYPDSVKGRFTISRDNAKNTLYLQMNSLRAEDTAVYYCARFFRFRNAMDYWGQGTLVTVSSASTKGPSVFPLAPSSKSTSGGTAALGCLVKDYFPEPVTVSWNSGALTSGVHTFPAVLQSSGLYSLSSVVTVPSSSLGTQTYICNVNHKPSNTKVDKKVEPKSCDKTHTCPPCPAPEAQGGPSVFLFPPKPKDTLYITREPEVTCVVVDVSHEDPEVKFNWYVDGVEVHNAKTKPREEQYNSTYRVVSVLTVLHQDWLNGKEYKCQVSNKALPAPIEKTISKAKGQPREPQVYTLPPSRDELTKNQVSLTCLVKGFYPSDIAVEWESNGQPENNYKTTPPVLDSDGSFFLYSKLTVDKSRWQQGNVFSCSVMHEALHNHYTQKSLSLSPG
light: DIQMTQSPSSLSASVGDRVTITCRTSENIYSYLAWYQQKPGKAPKFLVYNAKTLAEGVPSRFSGSGSGTDFTLTISSLQPEDFATYYCQHYYGPPTWTFGQGTKVEIKRTVAAPSVFIFPPSDEQLKSGTASVVCLLNNFYPREAKVQWKVDNALQSGNSQESVTEQDSKDSTYSLSSTLTLSKADYEKHKVYACEVTHQGLSSPVTKSFNRGEC
notes: Monospecific control, full-length IgG1; also called huC2C1A1A-V15(IgG1); anti-IL4R huC2C1A1A1-V15
Regarding B1, the concentration for a half-maximal effect (EC50) was 0.0201 nM in assay [1], 0.0294 nM in assay [4], approximately 0.162 nM in assay [5] and approximately 0.165 nM in assay [7]. The IC50 in assay [2] is 0.159 nM; in assay [6], 0.172 nM. In addition, the Kd in assay [3] came out at 2.07 nM. Also, the koff in assay [3] is 0.000348 s⁻¹. Moreover, the kon in assay [3] was determined as 168000 M⁻¹ s⁻¹.

B2: Tezepelumab (antibody, human IgG2, lambda, V domains shown)
VH: QMQLVESGGGVVQPGRSLRLSCAASGFTFRTYGMHWVRQAPGKGLEWVAVIWYDGSNKHYADSVKGRFTITRDNSKNTLNLQMNSLRAEDTAVYYCARAPQWELVHEAFDIWGQGTMVTVSS
VL: SYVLTQPPSVSVAPGQTARITCGGNNLGSKSVHWYQQKPGQAPVLVVYDDSDRPSWIPERFSGSNSGNTATLTISRGEAGDEADYYCQVWDSSSDHVVFGGGTKLTVLG
notes: Positive control, prepared in-house; also called an anti-TSLP antibody
B2 gave an IC50 in assay [8] of 1.23 nM.

(Values after patent publication US20260109758A1 (BIOSION, published 2026).)
